Changes are numbered by the printed parent chain.
How the values were obtained:
[1] = target: BrxR from Escherichia fergusonii, untagged (Escherichia fergusonii ATCC 35469); assay: SEC; analytical gel filtration, Superdex 200 Increase GL 5/150, 20 mM Tris-HCl pH 7.9, 150 mM NaCl, 0.175 ml/min; 50 μl samples with 5 μl of 1000 nM protein; oligomeric state from elution volume against calibration standards
[2] = target: His6-BrxR from Escherichia fergusonii (Escherichia fergusonii ATCC 35469); assay: as above
[3] = target: His6-BrxR-R17A from Escherichia fergusonii (Escherichia fergusonii ATCC 35469); assay: as above
[4] = target: T1, His6-BrxR (BrxR-Efer) (Escherichia fergusonii (plasmid pEFER), UniProt B7L3Y3 14-308); assay: EMSA; EMSA: 10 mM Tris-HCl pH 7.9, 150 mM KCl, 0.5 mM EDTA, 0.2 mM DTT, 0.1% Triton X-100, 13% glycerol (1x of 5x buffer), 1 ug poly(dI-dC) per 10 ul, 2500 fmol probe, 25 C 30 min; 7% native PAGE in 0.5x TBE; conditions: protein: recombinant; tags: N-terminal His6; chain copies: 2; label: 5' 6-FAM on reverse strand (primer TRB1068); blunt
T1 sequence: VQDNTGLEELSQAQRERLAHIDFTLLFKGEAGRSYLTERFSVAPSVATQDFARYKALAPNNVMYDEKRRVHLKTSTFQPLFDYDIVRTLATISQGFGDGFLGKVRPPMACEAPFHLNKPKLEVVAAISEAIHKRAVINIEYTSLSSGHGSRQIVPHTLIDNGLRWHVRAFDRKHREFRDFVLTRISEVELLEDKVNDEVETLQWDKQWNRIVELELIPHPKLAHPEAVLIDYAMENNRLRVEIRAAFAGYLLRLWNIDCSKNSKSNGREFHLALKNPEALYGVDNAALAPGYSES

[5] = target: T1, His6-BrxR (BrxR-Efer); assay: EMSA; only non-specific binding at high protein; EMSA: 10 mM Tris-HCl pH 7.9, 150 mM KCl, 0.5 mM EDTA, 0.2 mM DTT, 0.1% Triton X-100, 13% glycerol (1x of 5x buffer), 1 ug poly(dI-dC) per 10 ul, 2500 fmol probe, 25 C 30 min; 7% native PAGE in 0.5x TBE; conditions: protein: recombinant; tags: N-terminal His6; chain copies: 2; label: 5' 6-FAM on reverse strand (primer TRB1068); blunt

“BrxR from Escherichia fergusonii, untagged (natural protein)” showed a stoichiometry N [1] of 2.

“His6-BrxR from Escherichia fergusonii (natural protein)” was tested, and the stoichiometry N [2] was 2.

“His6-BrxR-R17A from Escherichia fergusonii (natural protein)” was tested, and the stoichiometry N [3] was 2.

B1: WT IR1-IR2 probe (R7, R-BOX1) (dsDNA)
DNA 1: GACGACTTGTTGATACTATGAAACCTACTGAAAAACAGTAGGTTGCTTGATGGCATTCAATCGATGGCTTAAGCTTTTGTCAGTGCGCA
DNA 2: TGCGCACTGACAAAAGCTTAAGCCATCGATTGAATGCCATCAAGCAACCTACTGTTTTTCAGTAGGTTTCATAGTATCAACAAGTCGTC
With B1 the Kd [4] was 13 ± 2.7 nM.

B2: IR1-IR2c probe (dsDNA)
DNA 1: B1 DNA 1 with A37C, G38C, T39C, A40C, G41C, G42C, T43C, T44C, G45C
DNA 2: B1 DNA 2 with C45G, A46G, A47G, C48G, C49G, T50G, A51G, C52G, T53G
Molecule B2 has a Kd [4] of 85.5 ± 18.7 nM.

B3: IR1c-IR2 probe (dsDNA)
DNA 1: B1 DNA 1 with G20C, A21C, A22C, A23C, T26C, A27C, T29C, G30C
DNA 2: B1 DNA 2 with C60G, A61G, T63G, A64G, T67G, T68G, T69G, C70G
For B3, the Kd [4] was 24 ± 6.5 nM.

B4: IR1c-IR2c probe (dsDNA)
DNA 1: GACGACTTGTTGATACTATCCCCCCCCCCCAAAAACCCCCCCCCCCTTGATGGCATTCAATCGATGGCTTAAGCTTTTGTCAGTGCGCA
DNA 2: TGCGCACTGACAAAAGCTTAAGCCATCGATTGAATGCCATCAAGGGGGGGGGGGTTTTTGGGGGGGGGGGATAGTATCAACAAGTCGTC
B4: no binding [5].
